Test results as given in patent US20230272113A1.

B1: FL-36 (scFv)
scFv: QVTLKESGPTLVKPTETLTLTCTFSGFSLRYARMGVSWIRQPPGKALEWLAHIFSNDEKSYSTSLKSRLTISKDTSKSQVVLTLTNMDPVDTATYFCARMPEYSSGWSGAFDIWGQGTMVTVSSGGGGSGGGGSGGGGSDIQMTQSPSSLSASVGDRVTITCRASQDIRNDLAWYQQKPGKAPKRLIYAASSLQSGVPSRFSGSGSGTEFTLTISSLQPEDFATYYCLQHNSYPLTFGGGTKLEIK
B2: FL-18 (scFv)
scFv: QVTLKESGPVLVKPTQTLTLTCTFSGFSLSNARMGVSWIRQPPGKALEWLAHIFSNDEKSFSTSLKNRLTISKDTSKSQVVLTMTNMDPVDTATYYCARMVGYGSGWYAYFDYWGQGTQVTVSSGGGGSGGGGSGGGGSDIQMTQSPSSLSASVGDRVTITCRASQSISSYLNWYQQKPGKAPKLLIYAASSLQSGVPSRFSGSGSGTDFTLTISSLQPEDFATYYCLQHNSYPLTFGGGTKVEIK
B3: FL-30 (scFv)
scFv: QVTLKESGPVLVKPTQTLTLTCTFSGFSLSNARMGVSWIRQPPGKALEWLALIYWNDDKRYSPSLKSRLTITKDTSKNQVVLTMTNMDPVDTATYYCARMVGYGSGWYAYFDYWGQGTLVTVSSGGGGSGGGGSGGGGSDIQMTQSPSSLSASVGDRVTITCRASQGIRNDLGWYQQKPGKAPKRLIYAASSLQSGVPSRFSGSGSGTEFTLTISSLQPEDFATYYCLQHNSYPLTFGGGTKVEIK
B4: FL-24 (scFv)
scFv: QVTLKESGPALVKPTETLTLTCTVSGFSLRNVRMGVSWIRQPPGKALEWLAHIFSNDEKSYSTSLKSRLTISKDTSKSQVVLILTNMDPVDTATYFCARMPEYSSGWSGAFDIWGQGTMVTVSSGGGGSGGGGSGGGGSDIQMTQSPSSLSASVGDRVTITCRASQDIRDDLVWYQQKPGKAPKRLIYAASTLQSGVPSRFSGSGSGTEFTLTISSLQPEDFATYYCLQHHSYPWTFGQGTKVEIK
B5: FL-25 (scFv)
scFv: QVTLKESGPALVKPTETLTLTCTVSGFSFRNARMGVSWIRQPPGKALEWLAHIFSNDEKSYSTSLKSRLTISKDTSKSQVVLTLTNMDPVDTATYFCARMPEYSSGWSGAFDIWGQGTMVTVSSGGGGSGGGGSGGGGSDIQMTQSPSSLSASVGDRVTITCRASQDIRDDLGWYQQKPGKAPKRLIYAASTLQSGVPSRFTGGGSGTEFTLTISSLQPEDFATYYCLQHNSFPFTFGGGTKVEIK
B6: FL-33 (scFv)
scFv: QVTLKESGPVLVKPTETLTLTCTVSGFSLRNARMGVSWIRQPPGKTLEWLAHIFSNDEKSYSTSLKSRLTISKDTSKGQVVLTMTNMDPVDTATYYCARIVGYGSGWYGYFDYWGQGTLVTVSSGGGGSGGGGSGGGGSDIQMTQSPSSLSASVGDRVTITCRASQGIGDDLGWYQQIPGKAPKRLIYATSVLQSGVPSRFSGSGSGTEFTLTISSLQPEDFATYYCLQHNSYPLTFGGGTKLEIK
B7: FL-20 (scFv)
scFv: QVTLKESGPALVKPTETLTLTCTLSGFSLNNARMAVSWIRQPPGKTLEWLAHIFSNDEKSYSTSLKSRLTISKDTSKSQVVLTMTNMDPEDTATYYCARIVGYGTGWYGFFDYWGQGILVTVSSGGGGSGGGGSGGGGSDIQMTQSPSSLSASVGDRVTITCRASQGIRNDLAWYQQKPGKAPKRLIYAASSLQSGVPSRFSGSGSGTEFTLTISSLQPEDFATYYCLQHNSYPLTFGGGTKVEIK
B8: FL-31 (scFv)
scFv: QVTLKESGPALVKPTQTLTLTCTFSGFSLSNARMGVSWIRQPPGKALEWLAHIFSNDEKSYSTSLKSRLTISKDTSKSQVVLTMTDMDPEDTATYYCARIVGYGTGWYGFFDYWGQGILVTVSSGGGGSGGGGSGGGGSDIQMTQSPSSLSASVGDRVTITCRTSQGIRNDLGWYQQKPGKAPKRLIYAASSLQSGVPSRFSGSGSGTEFTLTISSLQPEDFATYYCLQHNSYPLTFGGGTKVEIK
B9: FL-34 (scFv)
scFv: QVTLKESGPALVKPTETLTLTCTFSGFSLRNARMGVSWIRQPPGKALEWLAHIFWNDEKSYSTSLKSRLTISKDTSKSQVVLTMTNMDPVDTATYYCARIPYYGSGSYNYGMDVWGQGTTVTVSSGGGGSGGGGSGGGGSDIQMTQSPSSLSASVGDRVTITCRASQGIRNDLGWYQQKPGKAPKRLIYAASSLQSGVPSRFSGSGSGTEFTLTISSLQPEDFATYYCLQHNSYPLTFGGGTKLEIK
B10: FL-35 (scFv)
scFv: QVTLKESGPALVKPTETLTLTCTVSGFSLNNARMGVSWIRQPPGKALEWLAHIFSNDEKSYSTSLKNRLTISKDSSKTQVVLTMTNVDPVDTATYYCARIVGYGTGWYGFFDYWGQGTQVTVSSGGGGSGGGGSGGGGSDIQMTQSPSSLSASVGDRVTITCRASQDIRDDLVWYQQKPGKAPKRLIYGTSTLQSGVPSRFSGSGSGTEFTLTISSLQPEDFATYYCLQHHSYPLTFGGGTKLEIK
B11: FL-32 (scFv)
scFv: QVTLKESGPTLVKPTETLTLTCTVSGFSFRNARMGVSWIRQPPGKALEWLAHIFSNDEKSYSTSLKSRLTISKDTSKGQVVLTMTNMDPVDTATYYCARIVGYGSGWYGYFDYWGQGTLVTVSSGGGGSGGGGSGGGGSDIQMTQSPSSLSASVGDRVTITCRASQGIRNDLVWYQQKPGKAPKRLIYAASTLQSGVPSRFSGSGSGTEFILTISSLQPEDFATYFCLQHYSYPLTFGGGTKLEIK
B12: FL-19 (scFv)
scFv: QVTLKESGPTLVKPTETLTLTCTVSGFSLSYARMGVSWIRQPPGKALEWLAQIFSNDEKSYSTSLKSRLTISKDTSKSQVVLTMTDMDPEDTATYYCARIVGYGTGWYGYFDYWGQGTQVTVSSGGGGSGGGGSGGGGSDIQMTQSPSSLSASVGDRVTITCRASQDIGDDLGWYQQKPGKAPKRLIYAASTLQSGVPFRFSGSGSGTDFTLTISSLQPEDFATYYCLQHNSYPLTFGGGTKVEIK
B13: FL-21 (scFv)
scFv: QVTLKESGPALVKPTETLTLTCTFSGFSLSNARMGVSWIRQPPGKALEWLAHIFSNDEKSYSTSLKSRLTISKDTSKSQVVLTMTNMDPVDTATYYCARIPGYGGNFYYHYYGMDVWGQGTTVTVSSGGGGSGGGGSGGGGSDIQMTQSPSSLSASVGDRVTITCRTSRGIRNDLGWYQQIPGRAPKRLIYAASTLQSGVPSRFSGSGSGTEFTLTISSLQPEDFATYYCLQHNNFPWTFGQGTKVEIK
B14: FL-22 (scFv)
scFv: QVTLKESGPVLVKPTETLTLTCTVSGFSFRNARMGVSWIRQPPGKALEWLAHIFSNDEKSYSTSLKSRLTISKDTSKSQVVLTLTNMDPVDTATYFCARMPEYSSGWSGAFDIWGQGTMVTVSSGGGGSGGGGSGGGGSDIQMTQSPSSLSASVGDRVTITCRASQGISNYLAWYQQKPGKAPKRLIYAASTLQSGVPSRFSGSGSGTEFTLTISSLQPEDFATYYCLQHNTYPWTFGQGTKVEIK
B15: FL-23 (scFv)
scFv: QVTLKESGPALVKPTETLTLTCTVSGFSFRNARMGVSWIRQPPGKALEWLAHIFSNDEKSYSTSLKSRLTISKDTSKSQVVLTLTNMDPVDTATYFCARMPEYSSGWSGAFDIWGQGTMVTVSSGGGGSGGGGSGGGGSDIQMTQSPSSLSASVGDRVTITCRASQDIGYDLGWYQQKPGKAPKRLIYAASTLQSGVPSRFSGSGSGTEFTLIISSLQPEDFATYYCLQHNSFPWTFGQGTKVEIK
B16: FL-37 (scFv)
scFv: QVTLKESGPVLVKPTETLTLTCTVSGFSLRNIKMGVSWIRQPPGKALEWLAHIFSNDEKSYSTSLKSRLTISKDTSKSQVVLTLTNMDPVDTATYFCARMPEYSSGWSGAFDIWGQGTMVTVSSGGGGSGGGGSGGGGSDIQMTQSPSSLSASVGDRVTITCRASQDISNYLAWYQQKPGKAPKRLIYAASSLQSGVPSRFSGSGSGTEFTLTISSLQPEDFATYYCLQHNSFPLTFGGGTKLEIK
B17: FL-26 (scFv)
scFv: QVTLKESGPVLVKPTETLTLTCTVSGFSFRNARMGVSWIRQPPGKALEWLAHIFSNDEKSYSTSLKSRLTISKDTSKSQVVLTLTNMDPVDTATYFCARMPEYSSGWSGAFDIWGQGTMVTVSSGGGGSGGGGSGGGGSDIQMTQSPSSLSASVGDRVTITCRASQGIRNDLVWYQQKPGKAPKRLIYGTSTLQSGVPSRFSGSGSGTEFTLTISSLQPEDFATYYCLQHNSYPLTFGGGTKVEIK
B18: FL-27 (scFv)
scFv: QVTLKESGPVLVKPTETLTLTCTVSGFSFRNARMGVSWIRQPPGKALEWLAHIFSNDEKSYSTSLKSRLTISKDTSKSQVVLTLTNMDPVDTATYFCARMPEYSSGWSGAFDIWGQGTMVTVSSGGGGSGGGGSGGGGSDIQMTQSPSSLSASVGDRVTITCRTSQGIRNDLVWYQQKPGKAPKRLIYAASTLQSGVPSRFSGSGSGTEFTLTISSLQPEDFATYFCLQHYSYPLTFGGGTKVEIK
B19: FL-28 (scFv)
scFv: QVTLKESGPVLVKPTETLTLTCTVSGFSFRNARMGVSWIRQPPGKALEWLAHIFSNDEKSYSTSLKSRLTISKDTSKSQVVLTLTNMDPVDTATYFCARMPEYSSGWSGAFDIWGQGTMVTVSSGGGGSGGGGSGGGGSDIQMTQSPSSLSASVGDRVTITCRASQGIGDDLGWYQQIPGKAPKRLIYATSVLQSGVPSRFSGSGSGTEFTLTISSLQPEDFATYYCLQHNSYPLTFGGGTKVEIK
B20: FL-29 (scFv)
scFv: QVTLKESGPALVKPTQTLTLTCTFSGFSLSNARMGVSWIRQPPGKALEWLAHIFSNDEKSYRTSLKSRLTISKDTSKSQVVLTMTNMDPVDTATYYCARIVGYGSGWYAYFDYWGQGTLVTVSSGGGGSGGGGSGGGGSDIQMTQSPSSLSASVGDRVTITCRASQGIRNDLGWYQQKPGKAPKRLIYAASSLQSGVPSRFSGSGSGTEFTLTISSLQPEDFATYYCLQHNSYPLTFGGGTKVEIK

Each binder was assayed against human FLT3 on transfected CHO cells (human) (UniProt P36888) (assay: FACS, scFv on CHO-human FLT3 cells pre-incubated with FLT3 ligand (competitor)).

Median [+ligand]/median [w/o ligand]*100, > 75%:
B1, B2, B3, B4, B5, B6, B7, B8, B9, B10, B11, B12, B13, B14, B15, B16, B17, B18, B19, B20
